Results: article PMC2742680

Molecular target: Galdieria sulphuraria sarcosine dimethylglycine methyltransferase (Galdieria sulphuraria)
Experiment: SEC

stoichiometry N: 2
Substance: Galdieria sulphuraria sarcosine dimethylglycine methyltransferase (enzyme)
